Target: T1, SpeA-His (Dickeya oryzae EC1, UniProt A0AB39IRQ5 1-658)
T1 sequence (looked up): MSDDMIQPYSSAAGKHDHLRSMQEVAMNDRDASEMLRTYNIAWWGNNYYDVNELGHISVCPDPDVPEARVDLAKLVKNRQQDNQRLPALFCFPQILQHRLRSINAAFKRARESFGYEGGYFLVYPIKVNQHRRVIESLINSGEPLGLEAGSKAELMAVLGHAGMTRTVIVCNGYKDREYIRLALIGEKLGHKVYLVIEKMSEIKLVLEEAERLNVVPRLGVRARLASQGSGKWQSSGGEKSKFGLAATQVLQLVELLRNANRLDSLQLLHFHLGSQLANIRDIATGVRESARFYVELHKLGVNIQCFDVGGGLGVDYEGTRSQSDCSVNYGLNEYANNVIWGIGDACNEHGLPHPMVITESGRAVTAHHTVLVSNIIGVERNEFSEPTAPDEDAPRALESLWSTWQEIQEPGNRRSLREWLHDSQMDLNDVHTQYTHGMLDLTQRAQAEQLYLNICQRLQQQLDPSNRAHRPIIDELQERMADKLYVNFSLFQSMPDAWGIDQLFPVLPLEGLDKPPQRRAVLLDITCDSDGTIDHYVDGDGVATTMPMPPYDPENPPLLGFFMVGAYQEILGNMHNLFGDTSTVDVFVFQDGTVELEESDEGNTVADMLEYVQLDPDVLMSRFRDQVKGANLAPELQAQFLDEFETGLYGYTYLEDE
Assay: cell-based or functional assay

B1: GST-YcgR (natural protein)
chain: MDVVDDNMKEQYARRGKMAICATLRGLQKQDATVMVYHTHGQFISKILEVDSDEEEFLFDLGALERENSRALFAGELGFVAETAGAKVEFRTTIIRTVEHDNLPAFCAAIPDVLYYIQRRNFFRINSPAWPPMVCRGELPDSTYFEFNLKDLSLGGLCMYTDDQGLAVLFEPGMILKNVDVDLASYGQFCLDMEFVNHATTKVVDSKGEVKQIERLSFKFPTLSAVQERGLQQVITELELDQNEKRKRLR
Q: With B1 as the binder, how does the “yield of agmatine made by SpeA in vitro (OPA fluorescence) with YcgR added at a 2:1 ratio, against the reaction without YcgR; 75% increase at 1 h to about 160% at 2 h” value read?
A: ~160%

Reference: article PMC12239582, “The cyclic di-GMP receptor YcgR links the second messenger with the putrescine quorum sensing system in modulation of Dickeya oryzae motility” (mBio, 2025)
